What is called stoichiometry N is a count of units in the complex or per binding partner.

Consider 1 substance from publication PMC10292035.

This experiment deals with E. cloacae Cap2 C109A/C548A (catalytically dead), untagged (Enterobacter cloacae). Briefly: cryo-EM structure.

The substance “E. cloacae Cap2 C109A/C548A (catalytically dead), untagged (enzyme)” showed a stoichiometry N of 2.
